Target: recombinant caprine β-lactoglobulin (unlabelled) (caprine) (UniProt P02756)
Assay: AUC

stoichiometry N: 2
Substance: recombinant caprine β-lactoglobulin (unlabelled) (from UniProt P02756 19-180) (natural protein)

— article doi:10.1101/675587
